Source: the supplement of paper PMC9170038

Tested on: MS2 coat protein
Assay: apparent KD of MS2 coat protein; designed switch direction (-1 OFF switch, 1 ON switch): -1; higher = weaker reporter binding
Summary of the method: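 Designed RNA switches sharing common flanks were transcribed on Illumina chips by stalled E. coli RNA polymerase. They were titrated with SNAP-549-labelled MS2 coat protein, from 0.7 or 1.5 nM doubling to 3 µM, in Tris-HCl pH 7.5 buffer with KCl, MgCl2, BSA, DTT, tRNA and Tween-20. Titrations ran without input, with 200 uM small-molecule ligand, or with an oligonucleotide input. The apparent KD of each design is the median over its clusters, after curve-fitting of normalised cluster fluorescence.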

[1] = Eterna round: R95, input ligand: microRNA oligo, concentration not stated
[2] = Eterna round: R95, input ligand: FMN 200 uM
[3] = Eterna round: R95, input ligand: none
[4] = input ligand: microRNA oligo, concentration not stated

Sequence	apparent KD of MS2 coat protein [1]	apparent KD of MS2 coat protein [2]	apparent KD of MS2 coat protein [3]	apparent KD of MS2 coat protein (input ligand: FMN 200 uM)	apparent KD of MS2 coat protein (input ligand: none)	apparent KD of MS2 coat protein [4]
CAGGAUAGAGGAUAUACAUAGAUACAGAUUCAUGUAAUCCUACAUGAGGAUCACCCAUGUAGAAGGCUAUCCUG [Fiskers Ex 2 - 16] (puzzle: Exclusion 2)	15.4 nM	–	–	–	–	–
GAGUAGGUAGGAUAUACGAUAAUAUAGGGUAGAUAUAUAACACAUGAGGAUCACCCAUGUAGAAGGACCAUGAG [Mat - Exclusion 2 - Mod of my Tesla design - D62] (puzzle: Exclusion 2)	37.1 nM	118 nM	35.1 nM	–	–	–
GAUCGACAUGAGGAUCACCCAUGUCAGGAUAUCGUCACUGGAGCUUCGGCUCCAGUGACGAGAAGGGAUAUAAU [E1/16-A1] (Eterna round: R97, puzzle: Exclusion 1)	–	–	–	26.3 nM	36.1 nM	–
GCAGCACAUGUAGGAUAUCUGCACGUUUAGUGCAGAGAAGGACAUGAGGAUCACCCAUGUAAUUAAGAUCAAUUAUUAAGCUGC [ENG1/3-C2] (Eterna round: R96, puzzle: Exclusion NG 1)	–	–	–	178 nM	44.2 nM	32.1 nM
CAUUACUGCAGGCUUCGGGACAUGAGGAUCACCCAUGUUCGUCUUAUUGAUCUAGGUACGCUGACGUACCUAGAUCU [JL-sv1-2.25 Brourd mod] (puzzle: Sensor v3, turn-off variant 1)	16.1 nM	17.3 nM	15.6 nM	–	–	–
GGUUGGCGAGGAUAUACAUGAGGAUCACCCAUGUGAGAGACAAAAGUGAGGAAGAAAAGUAGAAGGCGCUGACG [salish99_ex3_r3_022] (puzzle: Exclusion 3)	84.5 nM	2000 nM	232 nM	–	–	–
AGUACUAUCACGAAAGUGUUAGUACAAUAAGCUUGUGAAACAUGAGGAUCACCCAUGUCCUCAUAAGCUCGUCUUAU [salish99_TOv2_r3_019] (Eterna round: R96, puzzle: Sensor v3, turn-off variant 2)	–	–	–	15.8 nM	17.8 nM	467 nM
AAAUAACAAGCAGGAUCCUACAUGAGGAUCACCCAUGUGCUCGUCUUAUAAAGUACUAUCACGAAAGUGAUAGUACA [Sensor 3, v1 - 14] (puzzle: Sensor v3, turn-off variant 1)	84.6 nM	434 nM	363 nM	–	–	–
GGUGGACAUGAGGAUCACCCAUGUGAGGAUAUCGGCCGGCUAGUGGCGGCUGGCUUCACGAGAAGGCGCAUAGU [Exclusion 1 V78] (puzzle: Exclusion 1)	65.4 nM	–	–	–	–	–
CUUUAGUAAGGAUAUCAGCUUAGGAGGUUGGUAAUGAGAGCUGAGAAGGUACAUGAGGAUCACCCAUGUUAGUU [JL Zatite mod 9] (puzzle: Exclusion 4)	17.1 nM	–	–	–	–	–
UCUCGCAGGCAAGGAUAUCCUACAUUGUUCUGGCCCGGGCAUGUUACAUGAGGAUCACCCAUGUGGGAGAAGGUGCGCCACGGC [Design 33] (Eterna round: R96, puzzle: Exclusion NG 2)	–	–	–	196 nM	100 nM	175 nM
ACAAGCUUUUUCAUAUCUAACAUGAGGAUCACCCAUGUUUAAGCAAUUAUGUUUGGGCUCUUUUGAGCUCGUCUUAU [JR_STOV1_Sub047] (Eterna round: R97, puzzle: Sensor, turn-off variant 1)	–	–	–	13.8 nM	12.3 nM	–
GCACGGAUGGUAGGAUAUCUGUGCGAUUAGCUCAGAGAAGGACCACAUGAGGAUCACCCAUGUACCUCAAUUAACCUUCCGUGC [Eli exng1 - 021] (Eterna round: R96, puzzle: Exclusion NG 1)	–	–	–	16.9 nM	17.6 nM	21 nM
AAACCUGCCCAUGACCGCAAGCUUUUUGCUUGUCUUACCACAUGAGGAUCACCCAUGUGGCAUGGGCUCCUUAUAAA [Xemave] (puzzle: Sensor v3, turn-off variant 2)	11.8 nM	14.2 nM	11.7 nM	–	–	–
UAUGGUAAAGUCAGGAUAUACGUGCAGAUUUCUAGGUAGAAGGGACAUGAGGAUCACCCAUGUAUGGUAGUGUU [Ex4 #45] (Eterna round: R97, puzzle: Brourd's mod of Exclusion 4)	–	–	–	75.5 nM	81.2 nM	–
AAGACCAGAGGAUAUCAGACGCGGCACAUGAGGAUCACCCAUGUAUUCCCGUCUGCCGACUGAGAAGGUUGGAAAG [Xeusbi] (puzzle: Exclusion 5)	9.41 nM	–	–	–	–	–
UCGGCGCGAGGAUAUACGUUUGCUUUUUUGUGUCGUUGCGUACAUGAGGAUCACCCAUGUAGAAGGCGCGCCGC [Apr-15 SS2-24] (puzzle: Exclusion 2)	16 nM	–	–	–	–	–

Sequence	apparent KD of MS2 coat protein [1]	apparent KD of MS2 coat protein [2]	apparent KD of MS2 coat protein [3]	apparent KD of MS2 coat protein (input ligand: FMN 200 uM)	apparent KD of MS2 coat protein (input ligand: none)	apparent KD of MS2 coat protein [4]
ACAAGCUUUUUGUUCGUCUUAUACACUCCUAAUAAGACAACAUGAGGAUCACCCAUGUAACAAACAAGAACUCAUGU [Sesor Array 6 - Jieux - Sensor v3, turn-off variant 2] (puzzle: Sensor v3, turn-off variant 2)	359 nM	55.1 nM	72.5 nM	–	–	–
CGUGCGUAUGUGAGGAUAUGCUGGUCCUUGGCUCGGCAGAAGGCACAUGAGGAUCACCCAUGUGGUGUCGUACG [salish99_Bmod_ex4_062] (puzzle: Brourd's mod of Exclusion 4)	152 nM	53.4 nM	171 nM	–	–	–
CAAAAGGAAGGAUAUGAUAAGCAGGACAUGAGGAUCACCCAUGUGACUGCCUCGUGGACAUCAGAAGGUCCAGGAC [Erqureorle] (puzzle: Exclusion 5)	17.2 nM	43.2 nM	13.8 nM	–	–	–
AGUUGGCGAGGAUAUACAUGAGGAUCACCCAUGUGAGAGAUACUAGUGAGGUCGAUGAGUAGAAGGCGCUGACA [Mat X3R4 m18] (Eterna round: R97, puzzle: Exclusion 3)	–	–	–	186 nM	142 nM	–
UGUUGUUACGCAGGAUAUCCACCAACAGGUGGAAGGAUAUGUACGCAGAAGGUUCGCCAACAGGCGGAGAAGGGCGGGUUAACA [pwkr exNG2 2xF7 2xFMN.26] (Eterna round: R96, puzzle: Exclusion NG 2)	–	–	–	178 nM	3690 nM	63.4 nM
GGUUAAUGCAAGGAUAUGCUAUUAUUUUAUUUUGCAGAAGGUGCAACAUGAGGAUCACCCAUGUUGGAGGGUUU [JR_E6_Sub025] (puzzle: Exclusion 6)	18.6 nM	–	–	–	–	–
UAAAUUGGGUAGGAUAUGUUUGUUUAAAGAGCCACAGAAGGACCCACAUGAGGAUCACCCAUGUAUCACCUAUG [Eternabot (L2) Solution 60] (Eterna round: R97, puzzle: Exclusion 6)	–	–	–	33.6 nM	27.1 nM	–
UCUCUUGGGCAAGGAUAUCCUGCGCGGUUCCGGUUCGUGUCUGUCACAUGAGGAUCACCCAUGUGGGAGAAGGUGCCUGCGGUU [Design 76] (Eterna round: R96, puzzle: Exclusion NG 2)	–	–	–	–	–	13.1 nM
CUGAGCAGACGGAGAUCCAACAUGAGGAUCACCCAUGUCUCAAAAGCUUCUUGCUCGUCUUAUCCUCCUCUGUUCUC [Maeronqu] (puzzle: Sensor v3, turn-off variant 1)	215 nM	36.8 nM	33.1 nM	–	–	–
AAAAGGACAGGAUAUUCGACUCGCAACAUGAGGAUCACCCAUGUGGUCGUCCAGUCGCUCGAAGAAGGGUUAAAAC [Cegeesbe] (puzzle: Exclusion 5)	26.7 nM	74.7 nM	31.3 nM	–	–	–
CAGUACUGAGGAUAUACAUGAGGAUCACCCAUGUUCCAAGGCUAGGAAACUAGCAAAAGUAGAAGGCAGUACUG [828 mod 2 m3] (Eterna round: R97, puzzle: Exclusion 3)	–	–	–	472 nM	24.5 nM	–
AUUUUAACAUAGGAUAUCGAAUUUAUUAUUUAACGAGAAGGAUGAACAUGAGGAUCACCCAUGUGGUAUCAUGA [Mat - Exclusion 6 - JL Mod - D21] (puzzle: Exclusion 6)	40.6 nM	72.8 nM	45.9 nM	–	–	–
AGACAGUCAGGAUAUACAUGAGGAUCACCCAUGUUGAGAUGAGAAAGGGCAGGAAGAGGUAGAAGGGACGAGAG [JR_Exclu3_Sub036] (puzzle: Exclusion 3)	24.7 nM	31 nM	30.4 nM	–	–	–
GGCCCGGGAGGAUAUACAAUGGGCUCGGGAAAUCGGGCUCGACAUGAGGAUCACCCAUGUAGAAGGCCCGGGCC [-36.5, -34.6 kcal A 24%, 4,0] (Eterna round: R97, puzzle: Exclusion 2)	–	–	–	34 nM	21.8 nM	–
UGGCUACAUGAGGAUCACCCAUGUCAGGAUAUGCCGUUGAAUUGACAUCGACGUACGGGUAGAAGGGACUGCGU [1st #10] (Eterna round: R97, puzzle: Exclusion 1)	–	–	–	50 nM	41.6 nM	–
UAGACUGAAGGAUAUACGUGGUAUCCGGCUAAUCAAGGUUCACAUGAGGAUCACCCAUGUAGAAGGUCAGCUCG [Eternabot (L2) Solution 18] (Eterna round: R97, puzzle: Exclusion 2)	–	–	–	359 nM	58.4 nM	–
UUUAAUUUUUUUUUUUUACAAGCUUUUUGCUCGUCUUAUACAUGAGGAUCACCCAUGUAGGUGAAAGGUAAAUUAUC [JMF 65] (puzzle: Sensor v3, turn-off variant 2)	117 nM	32 nM	30.9 nM	–	–	–
